Experimental data taken from the domain aggregation screens of Martell et al. (2025).

Assay: soluble fraction after stress (log2 fold change); higher = more stays soluble; pooled small domains, quantitative proteomics
Conditions: stress: pH 4
In short: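 Pooled custom libraries of small protein domains were subjected to pH 4 and measured by high-throughput quantitative proteomics. The log2 fold change in soluble amount per domain is reported, higher values meaning more remained soluble. This is used as a measure of aggregation propensity.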

Row | Sequence | soluble fraction (log2)
1 | HMKLFGTPGSPFARKVRIVLEEKRIPHEYIIERGSAPGSRVPQYNPLGKVPTLVLDDGRGLYDSPVIVEYL | -0.108
2 | HMKLGYTVHGNVVTVKAVANGISLYNTIGQKVAESTDGQTVKAPAHGVYILSVQGKSGSRETAKIVI | 0.114
3 | HMKLHQDLQIKVIDAANNKVEFIDTATGTSLATRTLDVNGVSKARGFEATLYGVVEDNDVFHIA | -0.116
4 | HMKLIRIPFILTEGPDSQKITIDVDGDEEFRLGDVFEEDDKLWTVNQILVSGERKAKRSMAGEVMRISALR | -0.696
5 | HMKLNEQSMQVIDRIVDRHRGRPGPVKLMLHDVQKELGYIPFEAMEKIAAASGVSADEVYGVVTFYTQFTT | -1.27
6 | HMKLNETIAEARKRKGLTQEQLAQKLYVTRQAVSRWERGEVVPGIDMLKLIAITLEEPIVHLL | -0.679
7 | HMKLQIQNIEIDKKISELAEGVSAEKLPFLAKLIDRSKLLNDKGEINEDSVKAAIEEVVKAFPDFK | -0.945
8 | HMKLRKINLIGIFGSKTAPSALVRLTNGRVLKVGLGELLDGGRVTAIGRSSLTYNKSGKSITLNMPI | ≥ 0.43
9 | HMKLRYRTQEELLGVAREYRRRGLPLSVIVIDFYHWTKFGDWKFDPAYWPDPVGMVRELRDMGVEAAV | 0.22
10 | HMKLSKKVTDFLAQMPSKSISPKMLANNLGLADDAGDYKHLLKTIAQLEESKAIEVTAAGNIALPQPE | 0.0669
11 | HMKLSLKTQVKEYLLSYIRDKKLQPGDRLLTQRELAEMLHTSQKVAQMALNSLEEEGIIIRRLGSGSFLAR | -0.227
12 | HMKLTKPQEVFIQELLKGSSQYEAYLKAYPSKKTWKRNSIDTEASKLFKNAKIKQRYEELLYNIREE | -0.175
13 | HMKLTNNDFIRLKTFMYNNYGINLENKKTLIETRLAIVVKRLGFNDFKSYIDNLMRDKTGEQASIIVGKLT | -0.141
14 | HMKLTPKQQQIYDFISSFADEHGYPPSVREIAQAVNLKSPATVHFHLKGLREAGYISQAEGKTRAITI | -0.136
15 | HMKMDGESQRLLSLIKEQGGSLPIGDKSSPEAIYRLTQMSKKTFKMALGSLYKAKQVVLSPTEVRL | 0.0519
16 | HMKMNFNEEEQKLLSEANVLVETNKTYTDDEVKGFSNKIVEHIMTFSKTDIPKVKSKFDPILFKI | -0.745
17 | HMKMTIEDLITQAKESNAAENYYEAFQLYSKAIDVLPNDPDLYSARGVVLFHLDRKEDSLIDMNKSVD | -0.879
18 | HMKMVEIDYGKFLTMLDTGKVKSVEIENNRIAINPSSSKDKNIYITGRMDDPELVDRLKNAKVEFTKVIP | -0.0394
19 | HMKNAYDLKMLVKDNDGNIERNMKYYFFLANGSKVEGITDDNGYTKTITTIQPEKADLHLINDELI | -0.0557
20 | HMKNDIQLKHDVEEELQWDPAVDASRFAVQAKDGVVTLSGGVDTFADKHAAEEAIRRVAGVTALVIHVDV | -0.271
21 | HMKNEFRVYPNPANKEIVTFNQTQDIEVYDTLGKLVLKAKNTNTLDTKSFHSGIYFIKTGSGLTRKLVV | ≥ 0.43
22 | HMKNEQESIAQKLYEAALKNDFVTIQEIQSGGYRLRNDDLTHMRESGVQSNTLIAIQKIFGL | -0.578
23 | HMKNEQIFIVRPDAEGTRLDQWLAAQMASSEEAPSRMQIQRWIKAGLVEGQGTLNPARRIEAGESYTVKPG | 0.203
24 | HMKNEYAMVIQVNGKLRGNMLVSADLEQKDIERMALDNEDIKRFISHENDVKKMIFVPKKLINIVT | ≥ 0.43
25 | HMKNIFDWLKQINYHKQPADSFTEKDWELFNSYMVHRFMSMNREFIEVVNYVQEMPPQEKILIYNIYREF | 0.25
26 | HMKNIINFIVKEDDNNKRVDMILANHDKSLSRTRVKNLILDSKLKINERIVQDPSIKTKLNDKIELEIVEP | 0.251
27 | HMKNIINLVIDGELHGKRIDAVIAQKNDSLSRTRIKNLVINGNLSINDEIVSDPSKKIYKDDKVSLTIPLP | -0.085
28 | HMKNIMRQWIELEPDQGKIRSKLYSLDRVVEETTNEVGMIKLLLEIDEKELNNLVSHNDIRLV | -0.625

Row | Sequence | soluble fraction (log2)
29 | HMKNIRKQAIEAIDRIKNGNPIVISKNAKLIFKNIAKEANVSPTELHREFRDVMLYVNSLKAP | 0.271
30 | HMKNKVTVPKVEGMDKEEAIQALNEVGLGYKAVMQSSDSVAEGKVISQGTAAGKKVDKNTQIIITVSGG | ≥ 0.43
31 | HMKNLADNIVALRKKHGLSQEQFAEKIDVTRQAVSNWERRIATPDVETIDLIAKLFDTDLTALVNG | -0.129
32 | HMKNLKLVSNTDGIRIDSWLADEFEDYSRSYLRKLIDQDLVYVNGNKIKANYKLKKGDEISISIPEPE | -0.259
33 | HMKNLTERQQQIIALISGNPLITRAEIASAIGFSVKTIERELSILSEIVSYVGSKKGGHWEIQT | -0.49
34 | HMKNLTERQQRIIALISENPQTTRAEIAGAIGVATKTIERELTTLSNIVYYVGPKKGGHWEIIK | 0.333
35 | HMKNLTEVEYSEFLESIAQDRVSKVQVDGLIIRGEMNDGQRFETVQPQVTDKALIDDMVNHRVDFSGARP | -0.726
36 | HMKNMSLGERIKEQRKSSGLSQEKVAEFVGVSRQAVTKWETGQSAPSTENLFKLAEIFGTTVDILLA | -0.0228
37 | HMKNNAIAPDQVVSLLKNEVNYNDDGRIEILDNNKNIRYNSKGELLTIEERVNEFLDANPHFRK | -0.0472
38 | HMKNSMANVQARREKILSAVDQSEPVAVEGLAQRFNVSITTLRRDLKALSDMGQVKWHHGLVERT | 0.164
39 | HMKNVADEVFEKMLNMIIEGDWKKGEMIPSENELREAFSVSRSTVRQAVQRLSALGIVRSRQGKGTYVEQV | 0.0309
40 | HMKNYYELLGVAREASQDQIKKAYRKLARKYHPDVSKEADAETRMQELNVAYDTLSDAEKKREYDFQLDHP | 0.218
41 | HMKPDDDMLLKILTKLFIQKQFVINSKDIFQYILKNTNRTYENIINIVNRLDTLSIEKKRQLTIPLIKEI | -0.555
42 | HMKPEQIELTFSGTTAMRLDKFLAENQPGLSRAKLQAIISSGSVEVNGKVITKQAFKLDPGDLVKALIPE | ≥ 0.43
43 | HMKPGWEDIFRMNQIQLEDAVRTVNRDDTLAPTKKAYLIQNLLASRWIVGNQLQAQKDKTTE | -0.335
44 | HMKPGYVIQVNGTVTKIQSGLVYVKTPAAQYTLMRKYAPADAAVGDRVSLWINEEGMVIDVHGK | -0.671
45 | HMKPKDILLPNFTNLTLDEAKAKAEEVKLNLNVSEEKYDVQIEEGKIISQDPKYQPNYTVKEGSTVNVVVS | 0.0508
46 | HMKPLIIPLELMQRLSSDKQLEAGFNRFSKSKQHEFAAYIAAAKRVETKVKRLEKIIPLILSGEGLNDR | 0.333
47 | HMKPLRPVHLEIQTHRLSPVGILRSSFRQAGKVMHSNHGRITGLNLEQLKLIQAAFAGEALPK | 0.0473
48 | HMKPQIRRHEKITALVREHGFMSVEQLARELEVTPQTIRRDIGILSAENVLRRYHGGAALGD | 0.148
49 | HMKPSNLTSDERTQLLAQLKTAMGSDQYNQLRRQVGEEKLLEYVLDNVPGIQEEILGNRAVQENIDLH | -0.266
50 | HMKPSTVSVPDVSGDKLSTAKMIIRKSGLKVGDVQKIEDDNVGAGKVVRTNPSAGSKKREGSSVDIFVASA | 0.111
51 | HMKPTVKGHFTRKESNVGGYADVRGWGVAGTPSMMANQSKDTRRFSTLIVPGRSVNVHPSPTKEAIIWWQS | -0.138
52 | HMKPTVKKLLAALPELRSGQPLHLSVATRKLRDAGLLGKNASSPTLFRNYVAQFELIPENQPNAVRYR | 0.268
53 | HMKPVSEMDNMEWVREQYFQNMIYEIGEWVKDKKTGIVGEIVKRGTNYVTIVQEDFSLHKIWLEDLETTE | -0.368
54 | HMKQDYYSILGVMRDASQEEIKRAYLDAAQRLHPDRNTSAGDTEMFLDVQQAYEVLSNPKRRAQYDATLP | 0.169
55 | HMKQEFEMGLPNGVGEQMLAHAIEKFDVKLEHSEFGPKLIGTYEELEKAKVFLYEAIEARLNQLE | -0.875
